Laboratory results published in the supplement of paper PMC10065799, “High-throughput profiling of sequence recognition by tyrosine kinases and SH2 domains using bacterial peptide display” (eLife, 2023).

Assays:
AncSZ = experiment: phosphorylation enrichment, bacterial display (enrichment ratio); higher = better substrate or ligand; peptides without Tyr show the background
EPHB1 = EPHB1 (UniProt P54762); experiment: as above
EPHB2 = EPHB2 (UniProt P29323); experiment: as above
FGFR1 = FGFR1 (UniProt P11362); experiment: as above
FGFR1, sequence (P11362 whole entry, looked up): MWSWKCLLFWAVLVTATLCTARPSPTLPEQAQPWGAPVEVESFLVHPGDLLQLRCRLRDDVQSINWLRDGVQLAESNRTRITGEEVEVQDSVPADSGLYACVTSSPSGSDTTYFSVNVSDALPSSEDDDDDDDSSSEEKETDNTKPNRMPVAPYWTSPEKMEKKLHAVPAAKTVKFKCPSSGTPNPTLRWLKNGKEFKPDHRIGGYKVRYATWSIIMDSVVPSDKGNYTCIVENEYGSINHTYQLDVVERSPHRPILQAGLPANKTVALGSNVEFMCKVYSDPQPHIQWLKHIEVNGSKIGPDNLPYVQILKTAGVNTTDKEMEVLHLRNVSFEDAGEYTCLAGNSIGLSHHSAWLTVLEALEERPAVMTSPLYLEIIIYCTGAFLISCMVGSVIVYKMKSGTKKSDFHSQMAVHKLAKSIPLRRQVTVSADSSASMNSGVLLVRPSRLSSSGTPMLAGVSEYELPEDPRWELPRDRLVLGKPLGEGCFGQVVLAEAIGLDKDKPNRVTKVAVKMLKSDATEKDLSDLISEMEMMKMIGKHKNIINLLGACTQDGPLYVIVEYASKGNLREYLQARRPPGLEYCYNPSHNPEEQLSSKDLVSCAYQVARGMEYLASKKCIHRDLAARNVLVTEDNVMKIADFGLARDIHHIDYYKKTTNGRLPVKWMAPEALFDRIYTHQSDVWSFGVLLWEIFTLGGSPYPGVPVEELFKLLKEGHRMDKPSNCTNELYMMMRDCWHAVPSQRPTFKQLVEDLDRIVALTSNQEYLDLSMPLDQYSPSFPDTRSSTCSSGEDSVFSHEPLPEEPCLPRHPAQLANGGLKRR

FGFR3 = FGFR3 (UniProt P22607); experiment: as above
FGFR3, sequence (P22607 whole entry, looked up): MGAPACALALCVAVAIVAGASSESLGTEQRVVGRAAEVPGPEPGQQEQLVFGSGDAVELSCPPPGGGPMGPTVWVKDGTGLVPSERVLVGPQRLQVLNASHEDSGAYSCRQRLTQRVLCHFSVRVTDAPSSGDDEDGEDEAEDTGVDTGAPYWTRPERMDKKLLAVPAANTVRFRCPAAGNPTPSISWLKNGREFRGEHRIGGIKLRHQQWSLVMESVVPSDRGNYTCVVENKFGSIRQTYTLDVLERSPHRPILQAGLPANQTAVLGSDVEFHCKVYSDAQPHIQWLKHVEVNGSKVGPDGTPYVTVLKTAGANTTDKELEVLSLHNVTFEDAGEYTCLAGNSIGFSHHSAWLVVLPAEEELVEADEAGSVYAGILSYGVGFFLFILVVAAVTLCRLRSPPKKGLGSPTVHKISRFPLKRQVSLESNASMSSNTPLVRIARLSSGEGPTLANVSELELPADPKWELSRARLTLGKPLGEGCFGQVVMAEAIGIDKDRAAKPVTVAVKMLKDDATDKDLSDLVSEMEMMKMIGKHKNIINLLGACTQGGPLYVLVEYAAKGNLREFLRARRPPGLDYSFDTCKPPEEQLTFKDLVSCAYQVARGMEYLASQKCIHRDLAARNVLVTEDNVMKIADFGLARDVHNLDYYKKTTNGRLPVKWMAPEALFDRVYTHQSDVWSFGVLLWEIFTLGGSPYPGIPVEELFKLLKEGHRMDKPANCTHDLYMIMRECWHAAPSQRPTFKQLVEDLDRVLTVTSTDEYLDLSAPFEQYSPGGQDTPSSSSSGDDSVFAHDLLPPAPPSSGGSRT

Fer (mouse) = experiment: as above
Fes = Fes (UniProt P07332); experiment: as above
Fyn = Fyn (UniProt P06241); experiment: as above
Fyn, sequence (P06241 whole entry, looked up): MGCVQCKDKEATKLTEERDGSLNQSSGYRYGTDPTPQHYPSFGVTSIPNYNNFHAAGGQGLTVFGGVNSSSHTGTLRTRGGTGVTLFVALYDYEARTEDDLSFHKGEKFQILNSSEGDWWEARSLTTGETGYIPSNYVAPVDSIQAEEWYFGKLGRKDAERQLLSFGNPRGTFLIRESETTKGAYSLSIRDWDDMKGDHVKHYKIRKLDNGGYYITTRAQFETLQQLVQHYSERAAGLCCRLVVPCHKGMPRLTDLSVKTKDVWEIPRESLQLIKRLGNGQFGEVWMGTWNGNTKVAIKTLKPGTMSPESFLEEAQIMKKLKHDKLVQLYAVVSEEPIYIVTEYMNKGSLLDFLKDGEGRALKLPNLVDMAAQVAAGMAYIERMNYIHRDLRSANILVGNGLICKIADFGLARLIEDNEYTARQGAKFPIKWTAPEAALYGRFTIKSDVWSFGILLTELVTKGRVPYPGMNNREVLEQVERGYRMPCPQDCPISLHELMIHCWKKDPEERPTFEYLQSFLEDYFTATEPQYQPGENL

Hck = Hck (UniProt P08631); experiment: as above
Hck, sequence (P08631 whole entry, looked up): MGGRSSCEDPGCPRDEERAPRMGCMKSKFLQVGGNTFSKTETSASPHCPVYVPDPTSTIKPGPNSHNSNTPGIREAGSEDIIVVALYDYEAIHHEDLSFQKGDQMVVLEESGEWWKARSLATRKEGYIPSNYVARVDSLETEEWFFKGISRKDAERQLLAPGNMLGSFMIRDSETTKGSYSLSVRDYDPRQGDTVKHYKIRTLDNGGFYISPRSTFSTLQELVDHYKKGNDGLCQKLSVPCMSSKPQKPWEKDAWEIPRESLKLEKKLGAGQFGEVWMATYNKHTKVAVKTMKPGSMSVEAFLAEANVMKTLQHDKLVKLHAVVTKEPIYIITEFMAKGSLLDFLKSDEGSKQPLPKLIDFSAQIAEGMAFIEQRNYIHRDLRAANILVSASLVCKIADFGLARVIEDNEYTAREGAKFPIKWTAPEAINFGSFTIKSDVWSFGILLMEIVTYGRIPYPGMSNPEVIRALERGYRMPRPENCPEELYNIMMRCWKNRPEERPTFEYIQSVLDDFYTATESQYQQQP

Jak2 = Jak2 (UniProt O60674); experiment: as above
MERTK = MERTK (UniProt Q12866); experiment: as above
MERTK, sequence (Q12866 whole entry, looked up): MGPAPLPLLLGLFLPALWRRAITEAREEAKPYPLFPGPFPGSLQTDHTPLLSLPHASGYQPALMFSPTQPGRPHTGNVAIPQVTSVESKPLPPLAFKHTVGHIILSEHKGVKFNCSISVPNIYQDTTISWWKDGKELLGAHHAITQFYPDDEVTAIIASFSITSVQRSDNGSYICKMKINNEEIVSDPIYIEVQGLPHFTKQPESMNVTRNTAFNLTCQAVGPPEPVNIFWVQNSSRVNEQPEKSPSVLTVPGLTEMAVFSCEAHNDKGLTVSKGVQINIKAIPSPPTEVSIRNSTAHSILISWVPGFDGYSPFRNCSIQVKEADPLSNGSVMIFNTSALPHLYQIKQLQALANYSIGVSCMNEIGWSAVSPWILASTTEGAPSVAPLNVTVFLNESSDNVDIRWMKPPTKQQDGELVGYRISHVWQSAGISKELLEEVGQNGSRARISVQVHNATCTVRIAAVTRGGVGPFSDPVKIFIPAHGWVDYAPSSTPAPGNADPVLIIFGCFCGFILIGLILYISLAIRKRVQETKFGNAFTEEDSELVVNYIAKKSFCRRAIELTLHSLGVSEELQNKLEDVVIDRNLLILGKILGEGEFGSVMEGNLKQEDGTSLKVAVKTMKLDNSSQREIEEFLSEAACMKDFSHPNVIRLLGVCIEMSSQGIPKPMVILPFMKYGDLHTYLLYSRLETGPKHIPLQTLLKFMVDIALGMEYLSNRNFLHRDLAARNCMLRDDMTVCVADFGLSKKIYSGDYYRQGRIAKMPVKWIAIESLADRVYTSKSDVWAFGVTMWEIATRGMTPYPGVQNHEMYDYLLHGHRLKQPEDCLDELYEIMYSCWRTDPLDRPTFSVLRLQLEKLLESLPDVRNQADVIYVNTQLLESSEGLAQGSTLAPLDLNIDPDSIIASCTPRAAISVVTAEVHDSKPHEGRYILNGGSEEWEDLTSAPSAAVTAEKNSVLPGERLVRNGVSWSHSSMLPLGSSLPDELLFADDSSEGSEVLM

c-Abl (mouse) = experiment: as above
c-Src = experiment: as above
Grb2 SH2 = Grb2 SH2 (UniProt P62993); experiment: SH2 binding enrichment of the phosphorylated peptide, bacterial display (enrichment ratio); higher = better substrate or ligand; peptides without Tyr show the background
Grb2 SH2, sequence (P62993 whole entry, looked up): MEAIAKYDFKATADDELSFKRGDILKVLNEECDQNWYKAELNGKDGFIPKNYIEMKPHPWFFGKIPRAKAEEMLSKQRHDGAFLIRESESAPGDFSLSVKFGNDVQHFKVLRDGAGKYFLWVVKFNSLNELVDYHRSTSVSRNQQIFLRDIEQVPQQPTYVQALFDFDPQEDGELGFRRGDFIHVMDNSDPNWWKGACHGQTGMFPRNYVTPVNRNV

SHP2-C SH2 = experiment: as above
c-Src SH2 = experiment: as above
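For SH2 binding enrichment of the phosphorylated peptide, bacterial display in this document: peptide library displayed on the E. coli surface as eCPX fusions, selected cells deep-sequenced, score is each peptide's frequency after selection divided by its frequency in the input.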
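For phosphorylation enrichment, bacterial display in this document: 11-residue human phosphosite peptides and single-mutation variants displayed on the E. coli surface, counted by deep sequencing, each peptide's frequency after selection divided by its frequency in the unselected input library; frequency after pTyr selection over input frequency; kinase dosed for 20-30% of maximal phosphorylation in three min.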

EPHB2, sequence (P29323 whole entry, looked up): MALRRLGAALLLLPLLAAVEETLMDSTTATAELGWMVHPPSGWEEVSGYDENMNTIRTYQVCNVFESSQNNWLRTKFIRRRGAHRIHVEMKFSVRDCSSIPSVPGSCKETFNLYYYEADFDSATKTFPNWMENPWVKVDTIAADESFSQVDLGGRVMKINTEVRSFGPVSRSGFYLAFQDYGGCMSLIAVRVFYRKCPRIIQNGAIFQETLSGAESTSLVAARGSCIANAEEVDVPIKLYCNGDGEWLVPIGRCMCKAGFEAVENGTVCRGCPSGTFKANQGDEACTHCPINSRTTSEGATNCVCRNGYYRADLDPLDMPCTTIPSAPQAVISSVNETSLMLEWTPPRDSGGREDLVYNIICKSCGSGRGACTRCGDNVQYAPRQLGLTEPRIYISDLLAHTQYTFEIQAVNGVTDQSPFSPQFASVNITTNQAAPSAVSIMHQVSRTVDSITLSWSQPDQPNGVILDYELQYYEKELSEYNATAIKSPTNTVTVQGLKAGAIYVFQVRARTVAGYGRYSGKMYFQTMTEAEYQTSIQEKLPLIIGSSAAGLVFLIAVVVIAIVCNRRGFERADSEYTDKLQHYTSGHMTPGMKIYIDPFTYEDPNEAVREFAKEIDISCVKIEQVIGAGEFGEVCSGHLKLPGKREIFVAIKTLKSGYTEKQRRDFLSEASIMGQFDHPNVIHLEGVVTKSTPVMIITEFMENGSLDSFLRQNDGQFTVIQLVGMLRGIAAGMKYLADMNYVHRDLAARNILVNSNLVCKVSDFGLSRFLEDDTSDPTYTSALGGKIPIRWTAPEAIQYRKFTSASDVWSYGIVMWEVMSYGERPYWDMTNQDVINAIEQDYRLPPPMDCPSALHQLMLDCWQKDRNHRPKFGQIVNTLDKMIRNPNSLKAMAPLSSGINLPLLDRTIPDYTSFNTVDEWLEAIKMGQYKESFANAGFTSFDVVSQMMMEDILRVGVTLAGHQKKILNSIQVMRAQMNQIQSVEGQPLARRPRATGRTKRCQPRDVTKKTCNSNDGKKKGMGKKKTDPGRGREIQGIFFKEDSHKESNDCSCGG

Sequence	phosphorylation enrichment (AncSZ)	phosphorylation enrichment (EPHB1)	phosphorylation enrichment (EPHB2)	phosphorylation enrichment (FGFR1)	phosphorylation enrichment (FGFR3)	phosphorylation enrichment (Fer (mouse))	phosphorylation enrichment (Fes)	phosphorylation enrichment (Fyn)	phosphorylation enrichment (Hck)	phosphorylation enrichment (Jak2)	phosphorylation enrichment (MERTK)	phosphorylation enrichment (c-Abl (mouse))	phosphorylation enrichment (c-Src)	SH2 binding enrichment (Grb2 SH2)	SH2 binding enrichment (SHP2-C SH2)	SH2 binding enrichment (c-Src SH2)
PTTKTYFPHFH [HBA1_Y43_D48H]	0.721	0.457	0.399	0.602	0.559	0.496	1.14	0.598	0.688	0.951	0.605	0.676	0.655	0.971	0.981	0.761
PTTKTYFRHFD [HBA1_Y43_P45R]	0.556	0.546	0.409	0.65	0.66	0.312	0.998	0.393	0.539	0.959	0.466	0.667	0.545	0.964	1.08	0.457
PTTKTYLPHFD [HBA1_Y43_F44L]	0.839	0.362	0.489	0.508	0.58	0.386	0.77	0.622	0.389	0.456	0.494	0.307	0.458	0.901	0.756	0.483
PVKDGYQMAQP [CSF1R_Y873_L868P]	0.682	0.451	0.474	1.05	0.694	0.591	1.11	0.433	0.833	0.521	0.393	0.278	0.574	0.838	0.673	0.527
PVQAAYRKVVA [HBB_Y131_Q132R]	0.502	0.199	0.237	0.367	0.373	0.339	0.505	0.407	0.543	0.336	0.348	0.48	0.421	0.859	0.597	0.493
PVRIAYGRPRG [SUGP2_Y985_D986G]	1.01	0.643	0.493	0.449	0.64	0.61	0.523	0.639	1.25	1.18	0.606	0.5	0.816	0.837	0.506	0.364
PYTDPYYDYEI [ZC3H18_Y371_A368T]	3.74	2.99	3.3	18.9	14.7	4.55	1.97	4.83	2.43	1.88	3.26	1.59	6.46	1.13	0.591	2.66
QAYSWYQHQRA [NDST1_Y714_R709Q]	1.13	0.701	0.901	1.22	0.883	6.78	1.01	0.516	0.782	1.1	3.85	0.8	0.642	1.23	1.17	1.08
QDIMAYRSREV [BCL6_Y157_G159S]	0.569	0.456	0.343	0.285	0.664	0.196	0.746	0.323	0.314	0.759	0.398	0.745	0.513	0.699	0.955	0.42
QEGPEYWDGET [HLA-A_Y83_Q86G]	1.73	0.739	0.786	0.839	1.25	0.788	1.71	0.712	0.712	1.67	0.627	0.964	0.554	0.957	0.662	0.476
QEGPEYWDLET [HLA-A_Y83_Q86L]	2.76	1.59	1.18	3.97	3.3	0.748	2.29	0.846	0.978	2.02	0.742	1.56	0.998	0.775	0.583	0.507
QELRRYLESGV [MICA_Y194_K196E]	0.597	0.749	1.54	0.62	0.662	0.486	0.812	0.772	0.489	1.16	0.49	0.616	0.465	0.729	0.596	0.397
QFQLKYSETPF [SIX6OS1_Y129_YF]	1.7	0.957	1.12	0.982	1.11	0.789	1.84	0.811	0.855	2.17	1.24	1.39	0.812	1.01	1.37	0.625
QGCGIYKDFFR [PLA2G2D_Y82_S80G_YF]	1.08	0.548	0.852	0.7	0.885	0.76	1.49	5.88	3.89	1.17	0.534	1.26	6.23	1.03	1.38	0.753
QGQHWYSSSDK [CASP10_Y9]	0.826	0.766	0.596	0.665	0.6	0.579	1.17	0.671	0.754	0.645	0.573	0.697	0.552	0.905	0.829	1.21
QGQHWYSSSDT [CASP10_Y9_K14T]	1.09	0.859	0.929	0.657	0.901	0.755	1.39	0.672	0.573	1.99	0.811	1.06	0.982	0.827	0.83	1.53
